Assay results taken from the supplement of paper PMC12042874.
± gives the uncertainty stated by the source.

experiment: amyloid nucleation score (Sup35N fusion, yeast selection) (log enrichment); library NNK3; higher = more nucleation; inactive = no reads after selection
In short: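 Three technical output replicates were used for random libraries. Psi-negative yeast expressing peptides of 20 random codons fused to Sup35N were induced with 100 μM copper sulfate for 24 hours and grown 7 days at 30°C on medium lacking adenine and uracil, and input and output plasmid inserts were Illumina-sequenced, excluding sequences with under 100 input reads. The nucleation score is the DiMSum log enrichment of output over input reads, centred on the mode score of non-aggregating sequences.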

Row | Substance | amyloid nucleation score
1 | CCACWGINHSYGLSTEVSQY | inactive
2 | RQYWCFYQSWNSLG | inactive
3 | LQQCFYMVNFFMLSSLAVLL | inactive
4 | WYVFMCNGSWFLRNCRNLSY | 0.144 ± 0.78
5 | WRMDSRYYCYYQFLSLSYQW | inactive
6 | NSSNVFVLIVCMYWKFSYSC | inactive
7 | LSLLVTLG | inactive
8 | RGLQELLWI | -0.999 ± 1.9
9 | TLGSAEDMYRQPRIANTDSC | -0.123 ± 0.59
10 | SRVGGISC | inactive
11 | KRYYYCHGSSL | inactive
12 | QYEWLNYSNLVVYSIKYPEN | inactive
13 | YGYVIPSSQLPSWTLQRY | inactive
14 | YIMSNLFGGNNLFGG | inactive
15 | MFMMTKRNCNSTCCHYKFRV | 0.656 ± 0.16
16 | DYIYILSW | inactive
17 | FFKFFWFSRRPISSFLGLCV | 0.708 ± 0.15
18 | CLVTLVLTKFWCMCASSAVD | inactive
19 | SNNLEGVLSVCDFVF | inactive
20 | RKAGR | inactive
21 | CVCVGDSDYCSQSVCVTSYR | inactive
22 | GSSKCRRLCGRVRQYSYWNR | inactive
23 | MVYPQLYTTKVVNVVPGLGS | inactive

Row | Substance | amyloid nucleation score
24 | FGQVKSCLAPCKSAAKH | inactive
25 | GFIEW | inactive
26 | DGACVSSRLSWGLVYMKKCS | inactive
27 | IWFWKGICLRYTSRKGMNLR | 1.75 ± 0.11
28 | ISTVNNIRIRFASKLGFFE | 1.25 ± 0.071
29 | ALTAYLVNVWSKYTGMLFSC | inactive
30 | PGGKVANESMQSSTHDDPGR | inactive
31 | ALTWMRMYALCNIEVNHYST | 2.07 ± 0.066
32 | GVIILSLTAKCQAMDSVRTL | 0.841 ± 0.14
33 | LSCPLVYSTSSFIK | inactive
34 | ILYSGVIILYSFYIRRPMVL | inactive
35 | TIMCNIWLGFRT | 2.01 ± 0.096
36 | NRLWSYMGTVLFNPFWLVWR | inactive
37 | SNPLQGDSLRSVLSCNSIYF | inactive
38 | GWNLTHRMSTGSKLLCPLRI | inactive
39 | SVRRLGGLLLYCNHFMFD | inactive
40 | HLNYYGAL | inactive
41 | YASVRVQFCCIFKSADRASP | 1.9 ± 0.088
42 | VSMCNLNGVLPLNLFRLGLC | inactive
43 | NVCRLRIFRSVYLLGYYTST | inactive
44 | HNISAIYDRNRF | inactive
45 | PLLIAVQWTMTAGCRSHKLL | -0.781 ± 2.5
46 | TLYCRYFG | 1.01 ± 0.23

Row | Substance | amyloid nucleation score
47 | LVTIYW | inactive
48 | VRSQGLHRRVFFIATGIKLG | inactive
49 | QICHRGEGFWPINSSIRKVV | inactive
50 | DDVTGKMKKIVCVDSHCQLP | inactive
51 | NLTFYMYIELVDLRGNAE | 2.29 ± 0.056
52 | LGYTQSVTVMRLMSQYKKAG | -0.334 ± 0.55
53 | YYFRRWGHS | inactive
54 | RLMNFVPSFVFCCFYKK | 1.27 ± 0.14
55 | ALFLACNH | 1.59 ± 0.095
56 | WNNYI | inactive
57 | CGGGALLDICLPFICPVNGL | 0.843 ± 0.19
58 | EGYACIVYCLGPINLLMWCT | inactive
59 | TVMLRRTRYVVYTVYRVVDV | inactive
60 | RYLRKEDDWFIDRAVD | inactive
61 | IVSCTCDRMADLGST | inactive
62 | MDRRNGNRN | inactive
63 | DVFRVMDNLLFWKGTLALIQ | inactive
64 | YNGGIRVTLT | inactive
65 | EDLVISNIFGWFGCLGLVYT | inactive
66 | SFLSKGRSRSSFQWYQGHRA | -0.302 ± 1.1
67 | IAGFRNGSPANNAVGKPG | inactive
68 | FIAFWCVNLRTL | inactive
69 | NWGVVYYISSCNGNSSHLSS | 1.83 ± 0.097

Row | Substance | amyloid nucleation score
70 | FLWSLLYIFIVCGFCNPSRR | inactive
71 | NKSWWKYVPIDDGELYMRAV | inactive
72 | LLHFVHNSSSMLVRRREETG | 0.262 ± 0.39
73 | GVTLTTLDSLSDFGWLIE | inactive
74 | FVVIAYTEDTGDYRMVLTQW | inactive
75 | AFGLTVFE | inactive
76 | MLNWPIDRDSWRPGFDMWLG | -0.426 ± 0.6
77 | SALFMLPYALTRMVYANLLQ | -0.004 ± 0.75
78 | KGCNYVNNSTAMLSRRSFYS | inactive
79 | HLVKEGDNTMVGGYPFQWMT | inactive
80 | ILNTVIGSQLDELPVAAFSS | inactive
81 | TNDTLFFVTSLVADPVERIS | inactive
82 | IHLSCMIIKRHLSRYCDQSR | inactive
83 | NCRVCCRYVNSSPDV | -0.974 ± 1.7
84 | LWRTGRALWAMNWKAYIQFK | inactive
85 | VCSSINPFQNMTSFKVWIKS | inactive
86 | PWALTMRNVLSKYMFGGGLR | inactive
87 | NFTVFYLRC | 1.67 ± 0.12
88 | CVMGVG | 0.312 ± 0.31
89 | LFGEGKFKYWMSVKKFGSGI | inactive
90 | QRFFRCIRSRSWTFTSGVIV | inactive
91 | VGGFFTSYKNYTK | 0.671 ± 0.27
92 | SYMLTFK | inactive

Row | Substance | amyloid nucleation score
93 | WMRVPRMWEGKANFISG | inactive
94 | RVYVLLLNGQPFCRKYRL | inactive
95 | CADFFQDCAHKIFKNNRITG | inactive
96 | DSFILLDTSTHTNTTAYGKC | inactive
97 | FPYVLVSTPVSPPICW | inactive
98 | ICNIYCCCQG | 2.6 ± 0.069
99 | GVLYDGVGDNHCCGSRKLVL | inactive
100 | VSGSFVYLLCNS | inactive
101 | GKLFWFCFRWRYLLTKMVQN | -0.702 ± 1.3
102 | WILLCIRRRMFCRGMCTINN | inactive
103 | LRSSYQNLDPSVCQQFHLGE | -0.075 ± 0.66
104 | RIITLNRHIRRVFRMGCRSM | inactive
105 | IPFLDKGYGR | inactive
106 | GGLRNNPKRVIRDEDVQVHM | inactive
107 | PVQRTLVRAVSESFR | 0.899 ± 0.13
108 | FFNRGKVAETGFIWSMVVV | inactive
109 | SFSSLQFVNIATPHY | 0.42 ± 0.2
110 | FLVTYKISWRYKSQQLCSYY | inactive
111 | RPMDDKWLIGLFARNERDVP | inactive
112 | GWGPRPSKNVCHIRCDMFFM | 1.59 ± 0.13
113 | MLYNCRQGCKRSW | 0.248 ± 0.44
114 | IVITHANTWMLLLVFPITAN | inactive
115 | TVNHDAIRELTDTSTDIFMS | inactive

Row | Substance | amyloid nucleation score
116 | YYTGFTIFLLRVWLLAGVGS | inactive
117 | LGVSLKGNYAYWFTLIWSDV | inactive
118 | FWSDFYPHVLIRWFRSMVRS | inactive
119 | SFHLQVLPRSGVLACISTGF | inactive
120 | FGRSVDFMVIHFCTTY | inactive
121 | VTELDEWSGIVVEGYNACSS | inactive
122 | ILSSKSTNENVSYFLLKM | 0.794 ± 0.099
123 | NTWRYN | inactive
124 | YWFSQFVIFGCSS | inactive
125 | RDSRRETKTNIWIVRYTLW | inactive
126 | ANCINRV | inactive
127 | LLIGNY | inactive
128 | CSLVSYSSLLGTCVDGIRDR | inactive
129 | TVFLDIISDVLILGGVRCRR | 1.26 ± 0.13
130 | EARLTSLCKKQYEF | inactive
131 | GSVFGKVGTVKSEMPRGSSN | inactive
132 | SSWLLLAGKIW | inactive
133 | GMFPVVRNGRWELRCPAVKW | inactive
134 | PLRPKLFFERNGSGYRQNRA | inactive
135 | RGFFMVWLMNCLMRFRISDF | inactive
136 | EFVDSLLKRGGLFRVFGASS | inactive
137 | VGGFKTILSIRRAAKCLCVG | inactive
138 | HLRLRRTFGINLH | inactive

Row | Substance | amyloid nucleation score
139 | LFHSYLIHRLFPSNHSNFRM | inactive
140 | GLALGWHFTC | inactive
141 | LSGNCKYRTLWFIGPYSHFC | inactive
142 | LEYVCMRH | inactive
143 | CYQSLECAIMGYGLYVYSWC | inactive
144 | VYPCKIFCVFVVAVILFFSL | inactive
145 | FYYRSFCRNGRRH | inactive
146 | LKSMLLSMRSIIEYCQQMVG | inactive
147 | MFLSALDNGLLVNGYVICVC | inactive
148 | ECVCCRYYLVCGGPILRQDL | inactive
149 | WMFGQSIAALFSWGTVCGLV | inactive
150 | LIYTGSAIIINRIWE | 2.17 ± 0.08
151 | LGRKIRFFGYSGWGCMIREY | inactive
152 | DIVYQARCA | inactive
153 | HLKCPRERLT | inactive
154 | ISTRPSM | inactive
155 | LKIWLRSYPYPLTGQKQRPK | inactive
156 | FLLRYWYKAVDSRHRYSQLI | inactive
157 | HFVLCDHYVR | inactive
158 | MNKNIRGYDLFKMRMMDWCM | inactive
159 | SSNTTMRINSVRH | inactive
